Experimental data as given in patent publication US20040077522A1 (published 2004).

B1: Helicobacter pylori LuxS (enzyme)
chain: MKMNVESFNLDHTKVKAPYVRIADRKKGVNGDLIVKYDVRFKQPNRDHMDMPSLHSLEHLVAEIIRNHANYVVDWSPMGCQTGFYLTVLNHDNYTEILEVLEKTMQDVLKAKEVPASNEKQCGWAANHTLEGAQNLARAFLDKRAEWSEVGVGSHHHHHH
modifications: selenomethionine in place of methionine (SeMet protein used for the crystals)
notes: Open reading frame amplified from H. pylori ATCC 43504D genomic DNA and expressed in E. coli with 8 added C-terminal residues; Homodimer in the crystal (two molecules, A and B, in the asymmetric unit); also called H. pylori LuxS; Helicobacter pylori wtLuxS
B2: Haemophilus influenzae LuxS (enzyme)
chain: MPLLDSFKVDHTKMNAPAVRIAKTMLTPKGDNITVFDLRFCIPNKEILSPKGIHTLEHLFAGFMRDHLNGDSIEIIDISPMGCRTGFYMSLIGTPNEQKVSEAWLASMQDVLGVQDQASIPELNIYQCGSYTEHSLEDAHEIAKNVIARGIGVNKNEDLSLDNSLLKGSHHHHHH
modifications: selenomethionine in place of methionine (SeMet protein used for the crystals)
notes: Open reading frame amplified from H. influenzae ATCC 51907D genomic DNA and expressed in E. coli with 8 added C-terminal residues; Homodimer in the crystal (two molecules in the asymmetric unit); also called H. influenzae LuxS; Haemophilus influenzae wtLuxS
B3: Deinococcus radiodurans LuxS (enzyme)
chain: MPDMANVESFDLDHTKVKAPYVRLAGVKTTPKGDQISKYDLRFLQPNQGAIDPAAIHTLEHLLAGYMRDHLEGVVDVSPMGCRTGMYMAVIGEPDEQGVMKAFEAALKDTAGHDQPIPGVSELECGNYRDHDLAAARQHARDVLDQGLKVQETILLERGSHHHHHH
modifications: selenomethionine in place of methionine (SeMet protein used for the crystals)
notes: Open reading frame amplified from D. radiodurans ATCC 13939D genomic DNA and expressed in E. coli with 8 added C-terminal residues; The same protein gave several crystal forms: P21 has a non-crystallographic dimer in the asymmetric unit, and C2 has a crystallographic dimer; also called D. radiodurans LuxS; Deinococcus radiodurans wtLuxS

Target: the molecule itself
Assay: X-ray crystal structure, homodimer interface

Row | Protein | surface area buried through the dimer interaction
1 | B1 | 4180 Å^2
2 | B2 | 4160 Å^2
3 | B3 | 3930 Å^2
